Results taken from publication PMC4447949, “Structures of the Ets Protein DNA-binding Domains of Transcription Factors Etv1, Etv4, Etv5, and Fev” (The Journal of Biological Chemistry, 2015).
Residue numbers refer to the chain shown, from its start. Numbers in names are those of the source.

Key:
Etv5 Ets domain = Etv5 Ets domain (human, UniProt P41161 365-462); experiment: X-ray crystallography; 1.95 A; Ca2+ bound near alpha4; EMSA: 50 mM Tris-HCl pH 7.5, 50 mM NaCl, 2 mM MgCl2, 0.01% Tween 20, 5% glycerol, 1 h at room temperature; proteins reduced with 10 mM TCEP unless stated; 10% native PAGE; conditions: protein: recombinant; tags: N-terminal His6 removed by TEV (leaves SM); 3' overhang 1 nt on each strand
Etv4 Ets domain = Etv4 Ets domain (human, UniProt P43268 338-470); experiment: X-ray crystallography; 2.8 A; 8 complexes per asymmetric unit; EMSA: 50 mM Tris-HCl pH 7.5, 50 mM NaCl, 2 mM MgCl2, 0.01% Tween 20, 5% glycerol, 1 h at room temperature; proteins reduced with 10 mM TCEP unless stated; 10% native PAGE; conditions: protein: recombinant; tags: N-terminal His6 removed by TEV (leaves SM); 3' overhang 1 nt on each strand
[1] = target: the molecule itself; experiment: crystal structure; DNA-free crystals; dimer seen between adjacent molecules in the crystal, with an intermolecular disulfide bond; protein purified with TCEP
[2] = target: the molecule itself; experiment: SEC; protein expressed in Rosetta-gami 2 E. coli and purified under nonreducing conditions (no TCEP); Superdex S75 or 200, 20 mM HEPES pH 7.5, 500 mM NaCl, 5% glycerol; dimer checked by SDS-PAGE with or without DTT and by mass spectrometry
Fev Ets domain = target: T1, Fev Ets domain (human, UniProt Q99581 42-141); experiment: X-ray crystallography; text cites 2YPR for the complex, but Fig. 1 uses 2YPR as Fev and Fig. 7 gives 3ZP5 as Fev-dsDNA; EMSA: 50 mM Tris-HCl pH 7.5, 50 mM NaCl, 2 mM MgCl2, 0.01% Tween 20, 5% glycerol, 1 h at room temperature; proteins reduced with 10 mM TCEP unless stated; 10% native PAGE; conditions: protein: recombinant; tags: N-terminal His6 removed by TEV (leaves SM); chain copies: 2; blunt
T1 sequence: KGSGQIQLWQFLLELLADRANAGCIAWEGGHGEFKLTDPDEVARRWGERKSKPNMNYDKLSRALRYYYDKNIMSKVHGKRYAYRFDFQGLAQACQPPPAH

Etv1 Y329S-P427S = Etv1 Y329S-P427S (human, UniProt P50549 326-429, Y329S;P427S); experiment: X-ray crystallography; 2.9 A; EMSA: 50 mM Tris-HCl pH 7.5, 50 mM NaCl, 2 mM MgCl2, 0.01% Tween 20, 5% glycerol, 1 h at room temperature; proteins reduced with 10 mM TCEP unless stated; 10% native PAGE; conditions: protein: recombinant; tags: N-terminal His6 removed by TEV (leaves SM); blunt

B1: 9-bp crystallization duplex with overhangs (dsDNA)
DNA 1: ACCGGAAGTG
DNA 2: ACTTCCGGTC
binding result (Etv5 Ets domain): binds
binding result (Etv4 Ets domain): binds

B2: Etv1^Y329S-P427S Ets domain (amino acids 326-429) (domain or fragment, human, UniProt P50549 326-429, looked up)
chain: GPTSQRRGSLQLWQFLVALLDDPSNSHFIAWTGRGMEFKLIEPEEVARRWGIQKNRPAMNYDKLSRSLRYYYEKGIMQKVAGERYVYKFVCDPEALFSMAFSDN
notes: Etv1 (Ets translocation variant 1, ER81), Ets domain construct, amino acids 326-429, with two primer-incorporated mutations; A selenomethionine form was used for phasing of the DNA complex; also called PCR mutant Ets domain; ER81; source: E. coli BL21 (DE3) Rosetta-R3, purified (Ni-IDA, TEV cleavage, SEC); not shown: His6, N-terminal, cleaved
binding result [1]: binds

B3: Etv1 wild-type Ets domain (amino acids 326-429) (domain or fragment, human, UniProt P50549 326-429, looked up)
chain: B2 chain with S4Y, S102P
notes: Same limits as the crystallised Y329S-P427S construct (PDB 4AVP, 4BNC); TEV cleavage leaves SM before the insert; From Rosetta-gami 2 under nonreducing conditions it is a disulfide-linked dimer; also called WT; WT dimer; source: E. coli BL21 (DE3) Rosetta-R3, purified with TCEP (Ni-IDA, TEV cleavage, SEC); E. coli Rosetta-gami 2, purified without TCEP; not shown: His6, N-terminal, cleaved
stoichiometry N [2]: 2

B4: 10-bp crystallization duplex (dsDNA)
DNA 1: ACCGGAAGTG
DNA 2: CACTTCCGGT
binding result (Fev Ets domain): binds
binding result (Etv1 Y329S-P427S): binds

B5: Etv4 Ets domain (amino acids 338-470) (domain or fragment, human, UniProt P43268 338-470, looked up)
chain: RGALQLWQFLVALLDDPTNAHFIAWTGRGMEFKLIEPEEVARLWGIQKNRPAMNYDKLSRSLRYYYEKGIMQKVAGERYVYKFVCEPEALFSLAFPDNQRPALKAEFDRPVSEEDTVPLSHLDESPAYLPELA
notes: Etv4 (PEA3), Ets domain construct, amino acids 338-470; TEV cleavage leaves SM before the insert; The limits are those told for the crystallised construct; also called PEA3; Etv4 WT; source: E. coli BL21 (DE3) Rosetta-R3, purified with TCEP (Ni-IDA, TEV cleavage, SEC); E. coli Rosetta-gami 2, purified without TCEP; not shown: His6, N-terminal, cleaved
stoichiometry N [2]: 2

B6: Fev Ets domain (amino acids 42-141) (domain or fragment, human, UniProt Q99581 42-141, looked up)
chain: T1 sequence
notes: Fev (Fifth Ewing Variant, PET-1), Ets domain construct, amino acids 42-141; TEV cleavage leaves SM before the insert; also called Fifth Ewing Variant; PET-1; source: E. coli BL21 (DE3) Rosetta-R3, purified (Ni-IDA, TEV cleavage, SEC); not shown: His6, N-terminal, cleaved
binding result [1]: binds

B7: Etv5 Ets domain (amino acids 365-462) (domain or fragment, human, UniProt P41161 365-462, looked up)
chain: RGSLQLWQFLVTLLDDPANAHFIAWTGRGMEFKLIEPEEVARRWGIQKNRPAMNYDKLSRSLRYYYEKGIMQKVAGERYVYKFVCDPDALFSMAFPDN
notes: Etv5 (ERM), Ets domain construct, amino acids 365-462; TEV cleavage leaves SM before the insert; The limits are those told for the crystallisation construct; also called ERM; Etv5 WT; source: E. coli BL21 (DE3) Rosetta-R3, purified with TCEP (Ni-IDA, TEV cleavage, SEC); E. coli Rosetta-gami 2, purified without TCEP; not shown: His6, N-terminal, cleaved
stoichiometry N [2]: 2
